Laboratory results as given in PMC6017737, “Functional Impact of the N-terminal Arm of Proline Dehydrogenase from Thermus thermophilus” (Molecules : A Journal of Synthetic Chemistry and Natural …, 2018).

B1: MBP-TtProDH ΔA (MBP-TtProDH lacking helix αA) (domain or fragment, Thermus thermophilus)
chain: QVERLIKHRAKGLVRRYVAGETLEEALKAAEALEREGVHAILDLLGEMVRTEEEARAFQRGLLELVWALAGKPWPKYISLKLTQLGLDLSEDLALALLREVLREAEPRGVFVRLDMEDSPRVEATLRLYRALREEGFSQVGIVLQSYLYRTEKDLLDLLPYRPNLRLVKGAYREPKEVAFPDKRLIDAEYLHLGKLALKEGLYVAFATHDPRIIAELKRYTEAMGIPRSRFEFQFLYGVRPEEQRRLAREGYTVRAYVPYGRDWYPYLTRRIAERPENLLLVLRSLVSGLE
notes: Proline dehydrogenase (TtProDH), Thermus thermophilus, lacking helix αA; C-terminal tail of TtProDH (part of helix α8), residues 288-309 as printed; Cloned with EcoRI and HindIII into pBAD-MBP; not shown: MBP, N-terminal, kept
B2: MBP-TtProDH ΔABC (MBP-TtProDH lacking helices αA, αB and αC) (domain or fragment, Thermus thermophilus, UniProt Q72IB8 38-287, looked up)
chain: GETLEEALKAAEALEREGVHAILDLLGEMVRTEEEARAFQRGLLELVWALAGKPWPKYISLKLTQLGLDLSEDLALALLREVLREAEPRGVFVRLDMEDSPRVEATLRLYRALREEGFSQVGIVLQSYLYRTEKDLLDLLPYRPNLRLVKGAYREPKEVAFPDKRLIDAEYLHLGKLALKEGLYVAFATHDPRIIAELKRYTEAMGIPRSRFEFQFLYGVRPEEQRRLAREGYTVRAYVPYGRDWYPYLT
notes: Proline dehydrogenase (TtProDH), Thermus thermophilus, lacking the whole N-terminal arm; PDB 5M42)'; the construct encodes up to residue 309, but the observed species is C-terminally truncated, cleaved before Arg288 (residues 288-309 removed); The difference of the predicted masses of ΔAB and ΔABC (75.5 against 74.4 kDa) fits a start at G38; not shown: MBP, N-terminal, kept
B3: MBP-TtProDH ΔAB (MBP-TtProDH lacking helices αA and αB) (domain or fragment, Thermus thermophilus)
chain: KGLVRRYVAGETLEEALKAAEALEREGVHAILDLLGEMVRTEEEARAFQRGLLELVWALAGKPWPKYISLKLTQLGLDLSEDLALALLREVLREAEPRGVFVRLDMEDSPRVEATLRLYRALREEGFSQVGIVLQSYLYRTEKDLLDLLPYRPNLRLVKGAYREPKEVAFPDKRLIDAEYLHLGKLALKEGLYVAFATHDPRIIAELKRYTEAMGIPRSRFEFQFLYGVRPEEQRRLAREGYTVRAYVPYGRDWYPYLTRRIAERPENLLLVLRSLVSGLE
notes: Proline dehydrogenase (TtProDH), Thermus thermophilus, lacking helices αA and αB; C-terminal tail of TtProDH (part of helix α8), residues 288-309 as printed; not shown: MBP, N-terminal, kept
B4: MBP-TtProDH ΔAB Y35F (domain or fragment, Thermus thermophilus)
chain: KGLVRRFVAGETLEEALKAAEALEREGVHAILDLLGEMVRTEEEARAFQRGLLELVWALAGKPWPKYISLKLTQLGLDLSEDLALALLREVLREAEPRGVFVRLDMEDSPRVEATLRLYRALREEGFSQVGIVLQSYLYRTEKDLLDLLPYRPNLRLVKGAYREPKEVAFPDKRLIDAEYLHLGKLALKEGLYVAFATHDPRIIAELKRYTEAMGIPRSRFEFQFLYGVRPEEQRRLAREGYTVRAYVPYGRDWYPYLTRRIAERPENLLLVLRSLVSGLE
notes: Proline dehydrogenase (TtProDH), Thermus thermophilus, lacking helices αA and αB, with Y35F in helix αC; C-terminal tail of TtProDH (part of helix α8), residues 288-309 as printed; Identical subunits by denaturing MS; not shown: MBP, N-terminal, kept
B5: MBP-TtProDH ΔAB V32D (domain or fragment, Thermus thermophilus)
chain: KGLDRRYVAGETLEEALKAAEALEREGVHAILDLLGEMVRTEEEARAFQRGLLELVWALAGKPWPKYISLKLTQLGLDLSEDLALALLREVLREAEPRGVFVRLDMEDSPRVEATLRLYRALREEGFSQVGIVLQSYLYRTEKDLLDLLPYRPNLRLVKGAYREPKEVAFPDKRLIDAEYLHLGKLALKEGLYVAFATHDPRIIAELKRYTEAMGIPRSRFEFQFLYGVRPEEQRRLAREGYTVRAYVPYGRDWYPYLTRRIAERPENLLLVLRSLVSGLE
notes: Proline dehydrogenase (TtProDH), Thermus thermophilus, lacking helices αA and αB, with V32D in helix αC; C-terminal tail of TtProDH (part of helix α8), residues 288-309 as printed; lacking in a part of the preparation; The preparation is a mixture: partially intact and partially cleaved before R288 (two subunit masses, 73.0 and 75.5 kDa); Mainly dimers by SEC, tetramers and dimers by …
B6: MBP-TtProDH ΔAB V36D (domain or fragment, Thermus thermophilus)
chain: KGLVRRYDAGETLEEALKAAEALEREGVHAILDLLGEMVRTEEEARAFQRGLLELVWALAGKPWPKYISLKLTQLGLDLSEDLALALLREVLREAEPRGVFVRLDMEDSPRVEATLRLYRALREEGFSQVGIVLQSYLYRTEKDLLDLLPYRPNLRLVKGAYREPKEVAFPDKRLIDAEYLHLGKLALKEGLYVAFATHDPRIIAELKRYTEAMGIPRSRFEFQFLYGVRPEEQRRLAREGYTVRAYVPYGRDWYPYLTRRIAERPENLLLVLRSLVSGLE
notes: Proline dehydrogenase (TtProDH), Thermus thermophilus, lacking helices αA and αB, with V36D in helix αC; C-terminal tail of TtProDH (part of helix α8), residues 288-309 as printed; lacking in a part of the preparation; The preparation is a mixture: partially intact and partially cleaved before R288 (two subunit masses, 73.0 and 75.5 kDa); Mainly dimers by SEC, tetramers and dimers by …
B7: MBP-TtProDH variant EE (MBP-TtProDH with Phe10 and Leu12 replaced by Glu) (enzyme, Thermus thermophilus)
chain: MNLDLAYRSEVEGVAGHPQVERLIKHRAKGLVRRYVAGETLEEALKAAEALEREGVHAILDLLGEMVRTEEEARAFQRGLLELVWALAGKPWPKYISLKLTQLGLDLSEDLALALLREVLREAEPRGVFVRLDMEDSPRVEATLRLYRALREEGFSQVGIVLQSYLYRTEKDLLDLLPYRPNLRLVKGAYREPKEVAFPDKRLIDAEYLHLGKLALKEGLYVAFATHDPRIIAELKRYTEAMGIPRSRFEFQFLYGVRPEEQRRLAREGYTVRAYVPYGRDWYPYLTRRIAERPENLLLVLRSLVSGLE
notes: Proline dehydrogenase (TtProDH), Thermus thermophilus, from its start to residue 287; C-terminal tail of TtProDH (part of helix α8), residues 288-309 as printed; The last residues of the printed tail (LE) may stem from the construct and not from the natural protein (my surmise); also called MBP-TtProDH EE; not shown: MBP, N-terminal, kept

Experiments:
[1] = target: T1, MBP-TtProDH ΔAB (Thermus thermophilus, UniProt Q72IB8, V32D, form not given)
T1 construct: gene TT_C1214

[2] = target: T2, MBP-TtProDH ΔA (Thermus thermophilus, UniProt Q72IB8); assay: residual proline:DCPIP activity after incubation; flavin absorption spectra; assay type: biochemical; conditions: covalent; suicide inhibitor, flavin N(5)-Lys99 adduct; 40 µM enzyme, pH 7.4, 25 °C
T2 construct: gene TT_C1214; lacks N-terminal helix αA; start 19 (QVERLIKHRAKG...) derived from printed primer; N-terminal MBP tag kept; E. coli TOP10; tetramer; FAD

[3] = target: T3, MBP-TtProDH ΔAB (Thermus thermophilus, UniProt Q72IB8, V36D, form not given)
T3 construct: gene TT_C1214

[4] = target: T4, MBP-TtProDH ΔAB (Thermus thermophilus, UniProt Q72IB8); assay: residual proline:DCPIP activity after incubation; flavin absorption spectra; assay type: biochemical; conditions: covalent; suicide inhibitor, flavin N(5)-Lys99 adduct; 40 µM enzyme, pH 7.4, 25 °C
T4 construct: gene TT_C1214; lacks N-terminal helices αA and αB; start 29 (KGLVRRYVAG...) derived from printed primer and V32/Y35/V36 numbering; N-terminal MBP tag kept; E. coli TOP10; tetramer; FAD

[5] = target: T5, MBP-TtProDH EE (Thermus thermophilus, UniProt Q72IB8, F10E/L12E, form not given); assay: as above; assay type: biochemical; conditions: covalent; suicide inhibitor, flavin N(5)-Lys99 adduct; 40 µM enzyme, pH 7.4, 25 °C
T5 construct: gene TT_C1214; full-length, Phe10 and Leu12 replaced by Glu; N-terminal MBP tag kept; E. coli TOP10; tetramer; FAD

[6] = target: the molecule itself; assay: SEC; analytical gel filtration on Superdex 200 of each MBP-fused variant alone, as described in ref. 19
[7] = target: the molecule itself; assay: native MS; nanoflow ESI-MS of the native MBP-fused variants; source backing pressure 7.8 mbar, cone voltage 100-150 V
[8] = target: the molecule itself; assay: SEC; 20 µM EE and 20 µM ΔABC mixed in 50 mM sodium phosphate pH 7.4, incubated at room temperature overnight, then Superdex 200 gel filtration; SDS-PAGE of the fractions

Row | Molecule | stoichiometry N [6] | stoichiometry N [7] | also measured
1 | C#CCNCC(=O)O [N-propargylglycine] |  |  | % residual activity after 90 min at 2.5 mM [1]: 30%; % residual activity after 90 min at 2.5 mM [2]: For ΔA and ΔAB the activity loss is even more pronounced; % residual activity after 90 min at 2.5 mM [3]: 63%; % residual activity after 90 min at 2.5 mM [4]: For ΔA and ΔAB the activity loss is even more pronounced; % residual activity after 90 min at 2.5 mM [5]: ~ 13%
2 | B1 | 4 | 2 | 
3 | B2 | 2 | 4 | 
4 | B3 | 4 | 2 | 
5 | B4 | 4 |  | 
6 | B5 | 2 | 4 | 
7 | B6 | 2 | 4 | 
8 | B7 |  |  | stoichiometry N [8]: 4
